Measured values as given in the supplement of paper PMC5998384.

Assays:
HeLa Kyoto [1] = experiment: thermal stability score vs G1/S (z-score of summed log2 fold changes over temperatures); higher = more thermally stable than in G1/S
HeLa Kyoto [2] = experiment: melting temperature (median over replicates), in situ; higher = more thermally stable
HeLa Kyoto [3] = experiment: solubility change mitosis vs G1/S (difference of NP-40 vs SDS log2 ratios) (log2 ratio difference); higher = more soluble in mitosis
HeLa Kyoto [4] = experiment: solubility in G1/S (NP-40 vs SDS abundance) (log2 ratio); higher = more soluble; conditions: cell cycle stage: G1/S
[5] = cell cycle stage: early G1 (4.5 h after nocodazole release)
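For melting temperature (median over replicates), in situ in this document: HeLa Kyoto cells synchronized by double thymidine or nocodazole block, proteins quantified by TMT10plex mass spectrometry, three independent biological replicates.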
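For solubility change mitosis vs G1/S (difference of NP-40 vs SDS log2 ratios) in this document: synchronized HeLa Kyoto cells (double thymidine block for G1/S, nocodazole release for mitosis), protein amounts in NP-40 versus SDS lysates quantified by mass spectrometry, three biological replicates.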
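For solubility in G1/S (NP-40 vs SDS abundance) in this document: HeLa Kyoto cells arrested at G1/S by double thymidine block, proteins quantified by TMT10plex mass spectrometry in mild NP-40 versus SDS extracts, three biological replicates.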
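For thermal stability score vs G1/S (z-score of summed log2 fold changes over temperatures) in this document: synchronized HeLa Kyoto cells, proteins quantified by TMT10plex mass spectrometry, three biological replicates, mitosis taken 0.5 h after nocodazole release, G1/S directly after double thymidine block.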

NOS1AP, sequence (chain, as listed by the source): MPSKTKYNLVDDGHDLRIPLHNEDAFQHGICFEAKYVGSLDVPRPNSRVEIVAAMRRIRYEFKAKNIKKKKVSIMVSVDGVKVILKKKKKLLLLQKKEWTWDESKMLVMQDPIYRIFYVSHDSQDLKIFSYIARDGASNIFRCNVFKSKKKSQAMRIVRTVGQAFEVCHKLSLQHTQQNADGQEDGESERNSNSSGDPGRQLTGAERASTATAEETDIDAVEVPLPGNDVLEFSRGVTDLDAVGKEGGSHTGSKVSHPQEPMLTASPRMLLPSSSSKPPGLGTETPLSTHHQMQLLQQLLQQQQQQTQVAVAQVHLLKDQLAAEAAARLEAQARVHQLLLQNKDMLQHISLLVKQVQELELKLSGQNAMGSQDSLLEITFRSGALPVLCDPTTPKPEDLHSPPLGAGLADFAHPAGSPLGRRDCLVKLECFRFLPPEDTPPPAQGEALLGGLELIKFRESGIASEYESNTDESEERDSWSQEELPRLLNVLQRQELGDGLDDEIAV
LIMD1, sequence (chain, as listed by the source): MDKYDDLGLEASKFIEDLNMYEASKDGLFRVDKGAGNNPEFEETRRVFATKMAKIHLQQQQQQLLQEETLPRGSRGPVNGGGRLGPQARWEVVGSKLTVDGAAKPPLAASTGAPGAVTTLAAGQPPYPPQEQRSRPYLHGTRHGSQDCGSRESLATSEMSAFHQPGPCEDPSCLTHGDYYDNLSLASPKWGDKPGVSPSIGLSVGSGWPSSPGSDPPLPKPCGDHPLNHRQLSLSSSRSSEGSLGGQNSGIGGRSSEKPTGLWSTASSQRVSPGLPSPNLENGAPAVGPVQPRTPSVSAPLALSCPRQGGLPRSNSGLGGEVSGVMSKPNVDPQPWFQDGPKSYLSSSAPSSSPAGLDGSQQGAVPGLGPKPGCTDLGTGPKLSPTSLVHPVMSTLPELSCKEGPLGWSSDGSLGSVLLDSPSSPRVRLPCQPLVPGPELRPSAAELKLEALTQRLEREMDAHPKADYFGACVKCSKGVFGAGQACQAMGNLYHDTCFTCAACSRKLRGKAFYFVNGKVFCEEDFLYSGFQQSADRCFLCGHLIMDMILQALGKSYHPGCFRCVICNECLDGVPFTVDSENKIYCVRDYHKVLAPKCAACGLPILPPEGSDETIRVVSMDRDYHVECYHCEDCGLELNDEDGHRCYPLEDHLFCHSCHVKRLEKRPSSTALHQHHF
EMC10, sequence (chain, as listed by the source): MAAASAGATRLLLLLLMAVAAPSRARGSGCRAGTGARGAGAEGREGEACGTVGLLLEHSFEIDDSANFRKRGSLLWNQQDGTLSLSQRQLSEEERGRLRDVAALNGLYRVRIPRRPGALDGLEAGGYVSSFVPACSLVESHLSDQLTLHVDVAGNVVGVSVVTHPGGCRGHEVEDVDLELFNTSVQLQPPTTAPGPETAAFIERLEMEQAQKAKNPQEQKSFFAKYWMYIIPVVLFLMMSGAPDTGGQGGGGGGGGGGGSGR
LARP4B, sequence (chain, as listed by the source): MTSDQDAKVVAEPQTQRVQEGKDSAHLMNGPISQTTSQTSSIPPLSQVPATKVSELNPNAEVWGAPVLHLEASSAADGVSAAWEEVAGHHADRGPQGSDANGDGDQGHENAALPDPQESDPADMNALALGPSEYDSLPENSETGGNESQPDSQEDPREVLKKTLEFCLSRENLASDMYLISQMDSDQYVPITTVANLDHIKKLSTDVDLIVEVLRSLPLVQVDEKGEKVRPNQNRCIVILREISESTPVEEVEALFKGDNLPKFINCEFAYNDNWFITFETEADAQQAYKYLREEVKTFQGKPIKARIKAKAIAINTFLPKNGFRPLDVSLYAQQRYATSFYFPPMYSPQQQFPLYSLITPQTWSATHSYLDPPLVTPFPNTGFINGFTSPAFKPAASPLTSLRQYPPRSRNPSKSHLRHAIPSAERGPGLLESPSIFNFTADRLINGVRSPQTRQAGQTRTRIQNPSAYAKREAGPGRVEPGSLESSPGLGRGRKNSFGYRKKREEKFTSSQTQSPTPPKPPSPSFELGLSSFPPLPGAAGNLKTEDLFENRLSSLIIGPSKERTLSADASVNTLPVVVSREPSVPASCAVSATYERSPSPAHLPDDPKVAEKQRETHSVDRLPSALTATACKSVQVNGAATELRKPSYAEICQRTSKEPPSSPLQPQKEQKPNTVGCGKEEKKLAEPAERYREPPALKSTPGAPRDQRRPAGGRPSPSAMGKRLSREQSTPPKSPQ
HNRNPAB, sequence (chain, as listed by the source): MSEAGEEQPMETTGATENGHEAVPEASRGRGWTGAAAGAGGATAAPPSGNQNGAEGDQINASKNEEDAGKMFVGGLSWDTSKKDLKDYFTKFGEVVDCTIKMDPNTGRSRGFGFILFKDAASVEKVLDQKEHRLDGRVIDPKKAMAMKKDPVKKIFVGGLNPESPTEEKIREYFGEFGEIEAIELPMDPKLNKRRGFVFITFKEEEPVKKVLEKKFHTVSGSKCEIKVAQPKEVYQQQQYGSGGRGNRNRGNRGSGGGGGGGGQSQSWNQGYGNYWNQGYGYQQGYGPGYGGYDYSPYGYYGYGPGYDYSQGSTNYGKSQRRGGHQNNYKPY
IRF2BP1, sequence (chain, as listed by the source): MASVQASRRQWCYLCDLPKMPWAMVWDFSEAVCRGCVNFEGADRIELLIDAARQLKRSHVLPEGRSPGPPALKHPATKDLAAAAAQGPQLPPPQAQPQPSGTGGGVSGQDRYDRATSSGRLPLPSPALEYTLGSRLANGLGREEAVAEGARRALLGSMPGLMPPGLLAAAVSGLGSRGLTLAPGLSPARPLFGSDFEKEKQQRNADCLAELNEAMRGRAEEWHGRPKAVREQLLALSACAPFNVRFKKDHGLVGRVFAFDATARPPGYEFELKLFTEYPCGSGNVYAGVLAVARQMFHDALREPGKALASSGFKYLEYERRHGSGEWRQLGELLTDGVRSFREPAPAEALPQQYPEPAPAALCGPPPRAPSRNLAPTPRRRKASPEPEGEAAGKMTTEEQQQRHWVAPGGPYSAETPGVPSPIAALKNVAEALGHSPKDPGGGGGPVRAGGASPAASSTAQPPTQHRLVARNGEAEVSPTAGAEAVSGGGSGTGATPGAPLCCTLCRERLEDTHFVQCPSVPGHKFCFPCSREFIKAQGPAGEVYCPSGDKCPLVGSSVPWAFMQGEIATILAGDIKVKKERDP

| Substance | thermal stability score (HeLa Kyoto [1]; [5]) | thermal stability score (HeLa Kyoto [1]; cell cycle stage: mitosis) | melting temperature (HeLa Kyoto [2]; cell cycle stage: G1/S) [°C] | melting temperature (HeLa Kyoto [2]; cell cycle stage: mitosis) [°C] | solubility change mitosis (log2) (HeLa Kyoto [3]) | solubility in G1/S (log2) (HeLa Kyoto [4]) |
| --- | --- | --- | --- | --- | --- | --- |
| EIF4H | -1.37 | -1.91 | 51.3 | 51.9 | 0.16 | 0.374 |
| EIF5A | 0.791 | 0.0469 | 49.7 | 50.7 | 0.0244 | 0.638 |
| EMC10 | 1.37 | 0.155 | 52.2 | 54.1 | -0.339 | 0.514 |
| EPRS | -0.525 | 2.58 | 48.6 | 49 | -0.127 | -0.115 |
| FAM98A | -1.25 | -0.239 | 53.4 | 51.3 | 0.324 | -0.0181 |
| FAT1 | 0.357 | 0.56 | 53.5 | 53.5 | -0.025 | -0.133 |
| FOCAD | -1.09 | -1.91 | 52.9 | 52.4 | -0.121 | -0.471 |
| FRG1 | 0.899 | 0.827 | 51.2 | 51.3 | 0.0777 | -0.326 |
| GMPPB | -1.12 | -4.14 | 54.3 | 54.1 | -0.108 | -0.038 |
| GMPS | 2.38 | 1.21 | 51.1 | 51.6 | -0.148 | 0.0167 |
| GOLGA3 | 0.197 | -1.4 | 51.8 | 50.4 | -0.048 | 0.313 |
| GOLGB1 | 1.43 | 4.58 | 48.6 | 49.9 | -0.0748 | 0.115 |
| GPATCH8 | 0.236 | 4.11 | 47.8 | 49.6 | 0.335 | -0.561 |
| HADHA | -1.31 | 0.108 | 50.8 | 50.9 | -0.133 | 0.196 |
| HCFC1 | -0.303 | 0.00236 | 52.5 | 52.7 | -0.0808 | 0.179 |
| HEATR5B | -0.405 | -0.289 | 50.8 | 52.4 | -0.00901 | -0.275 |
| HNRNPAB | -0.524 | -3.14 | 55.3 | 54.4 | 0.251 | 0.308 |
| INADL | 0.59 | 1.68 | 47.4 | 49.2 | -0.068 | -0.0157 |

| Substance | thermal stability score (HeLa Kyoto [1]; [5]) | thermal stability score (HeLa Kyoto [1]; cell cycle stage: mitosis) | melting temperature (HeLa Kyoto [2]; cell cycle stage: G1/S) [°C] | melting temperature (HeLa Kyoto [2]; cell cycle stage: mitosis) [°C] | solubility change mitosis (log2) (HeLa Kyoto [3]) | solubility in G1/S (log2) (HeLa Kyoto [4]) |
| --- | --- | --- | --- | --- | --- | --- |
| IRF2BP1 | 1.4 | 3.22 | 46.9 | 49.5 | -0.0595 | 0.316 |
| ITPR3 | 0.858 | 2.41 | 48.6 | 50.1 | 0.0432 | -0.508 |
| KDM3B | 0.937 | 2.62 | 48.6 | 49.8 | -0.108 | 0.00792 |
| KDM5C | 0.484 | 0.572 | 49.3 | 50 | -0.075 | -0.0935 |
| KIF21A | -1.01 | 0.181 | 49.5 | 50.3 | -0.0922 | -0.0549 |
| KNTC1 | -0.336 | 0.546 | 49.6 | 49.4 | -0.188 | -0.33 |
| LAMC1 | 2.27 | 3.77 | 53.5 | 53.9 | -0.0329 | -0.0818 |
| LARP4B | -0.656 | -1.1 | 50.8 | 50 | 0.533 | -0.183 |
| LIMD1 | 0.183 | -0.541 | 51.8 | 51.9 | -0.126 | 0.148 |
| LRP1 | -1.09 | -1.22 | 55.5 | 55.1 | -0.0628 | -0.0261 |
| LSM14B | 0.76 | 1.45 | 49.6 | 50 | 0.137 | 0.0485 |
| MSSECDGGSKAVMNGLAPGSNGQDKATADPLRARSISAVKIIPVKTVKNASGLVLPTDMDLTKICTGKGAVTLRASSSYRETPSSSPASPQETRQHESKPGLEPEPSSADEWRLSSSADANGNAQPSSLAAKGYRSVHPNLPSDKSQDATSSSAAQPEVIVVPLYLVNTDRGQEGTARPPTPLGPLGCVPTIPATASAASPLTFPTLDDFIPPHLQRWPHHSQPARASGSFAPISQTPPSFSPPPPLVPPAPEDLRRVSEPDLTGAVSSTDSSPLLNEVSSSLIGTDSQAFPSVSKPSSAYPSTTIVNPTIVLLQHNREQQKRLSSLSDPVSERRVGEQDSAPTQEKPTSPGKAIEKRAKDDSRRVVKSTQDLSDVSMDEVGIPLRNTERSKDWYKTMFKQIHKLNRDTPEENPYFPTYKFPELPEIQQTSEEDNPYTPTYQFPASTPSPKSEDDDSDLYSPRYSFSEDTKSPLSVPRSKSEMSYIDGEKVVKRSATLPLPARSSSLKSSSERNDWEPPDKKVDTRKYRAEPKSIYEYQPGKSSVLTNEKMSRDISPEEIDLKNEPWYKFFSELEFGKPPPKKIWDYTPGDCSILPREDRKTNLDKDLSLCQTELEADLEKMETLNKAPSANVPQSSAISPTPEISSETPGYIYSSNFHAVKRESDGAPGDLTSLENERQIYKSVLEGGDIPLQGLSGLKRPSSSASTKDSESPRHFIPADYLESTEEFIRRRHDDKEKLLADQRRLKREQEEADIAARRHTGVIPTHHQFITNERFGDLLNIDDTAKRKSGSEMRPARAKFDFKAQTLKELPLQKGDIVYIYKQIDQNWYEGEHHGRVGIFPRTYIELLPPAEKAQPKKLTPVQVLEYGEAIAKFNFNGDTQVEMSFRKGERITLLRQVDENWYEGRIPGTSRQGIFPITYVDVIKRPLVKNPVDYMDLPFSSSPSRSATASPQFSSHSKLITPAPSSLPHSRRALSPEMHAVTSEWISLTVGVPGRRSLALTPPLPPLPEASIYNTDHLALSPRASPSLSLSLPHLSWSDRPTPRSVASPLALPSPHKTYSLAPTSQASLHMNGDGGVHTPSSGIHQDSFLQLPLGSSDSVISQLSDAFSSQSKRQPWREESGQYERKAERGAGERGPGGPKISKKSCLKPSDVVRCLSTEQRLSDLNTPEESRPGKPLGSAFPGSEAEQTERHRGGEQAGRKAARRGGSQQPQAQQRRVTPDRSQTSQDLFSYQALYSYIPQNDDELELRDGDIVDVMEKCDDGWFVGTSRRTKQFGTFPGNYVKPLYL [SORBS1] | -0.134 | 4.08 |  |  | 0.424 | -0.0532 |
| MSWLFGVNKGPKGEGAGPPPPLPPAQPGAEGGGDRGLGDRPAPKDKWSNFDPTGLERAAKAARELEHSRYAKEALNLAQMQEQTLQLEQQSKLKEYEAAVEQLKSEQIRAQAEERRKTLSEETRQHQARAQYQDKLARQRYEDQLKQQQLLNEENLRKQEESVQKQEAMRRATVEREMELRHKNEMLRVETEARARAKAERENADIIREQIRLKASEHRQTVLESIRTAGTLFGEGFRAFVTDRDKVTATVAGLTLLAVGVYSAKNATAVTGRFIEARLGKPSLVRETSRITVLEALRHPIQVSRRLLSRPQDVLEGVVLSPSLEARVRDIAIATRNTKKNRGLYRHILLYGPPGTGKTLFAKKLALHSGMDYAIMTGGDVAPMGREGVTAMHKLFDWANTSRRGLLLFMDEADAFLRKRATEEISKDLRATLNAFLYHMGQHSNKFMLVLASNLPEQFDCAINSRIDVMVHFDLPQQEERERLVRLHFDNCVLKPATEGKRRLKLAQFDYGRKCSEVARLTEGMSGREIAQLAVSWQATAYASKDGVLTEAMMDACVQDAVQQYRQKMRWLKAEGPGRGVEHPLSGVQGETLTSWSLATDPSYPCLAGPCTFRICSWMGTGLCPGPLSPRMSCGGGRPFCPPGHPLL [ATAD3B] | 0.595 | 0.439 |  |  | -0.00813 | -0.105 |
| MVRGARQPQQPRSRLAPRLTGTVEKPPRKRRSRTEFALKEIMSSGGAEDDIPQGERKTVTDFCYLLDKSKQLFNGLRDLPQYGQKQWQSYFGRTFDVYTKLWKFQQQHRQVLDNRYGLKRWQIGEIASKIGQLYYHYYLRTSETSYLNEAFSFYSAIRQRSYYSQVNKEDRPELVVKKLRYYARFIVVCLLLNKMDVVKDLVKELSDEIEDYTHRFNTEDQVEWNLVLQEVAAFIEADPVMVLNDDNTIVITSNRLAETGAPLLEQGMIVGQLSLADALIIGNCNNQVKFSELTVDMFRMLQALEREPMNLASQMNKPGMQESADKPTRRENPHKYLLYKPTFSQLYTFLAASFKELPANSVLLIYLSATGVFPTGRSDSEGPYDFGGVLTNSNRDIINGDAIHKRNQSHKEMHCLHPGDLYPFTRKPLFIIVDSSNSVAYKNFTNLFGQPLVCLLSPTAYPKALQDQSQRGSLFTLFLNNPLMAFLFVSGLSSMRRGLWEKCQEYLRKINRDIAQLLTHSRSIDQAFLQFFGDEFLRLLLTRFIFCSATMRMHKIFRETRNYPESYPQLPRDETVENPHLQKHILELASILDVRNVFFENTIDDY [SCAI] | 0.148 | -0.274 |  |  | -0.117 | -0.309 |
| NOS1AP | 0.688 | 0.322 |  |  | -0.0377 | -0.0474 |
| PIKFYVE | 0.473 | 0.726 |  |  | -0.153 | -0.0952 |
| SNRPF | -0.0433 | -0.451 |  |  | -0.0169 | -1.06 |
| VPS13D | 0.236 | -0.0982 |  |  | -0.104 | -0.404 |
